This note sets out measurements from the supplement of paper PMC10201428.

± gives the standard deviation of the averaged measurements.

Data set [1] concerns VchCAST RNA-guided transposition machinery (E. coli BL21(DE3) host, lacZ target). Kind of data set: relative integration efficiency (T-LR orientation) vs wild-type transposon end (log2 (normalized fold change)); transposon end mutated: left end; higher = more efficient transposition. As to the method: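 Pooled, barcoded VchCAST (Tn6677) mini-transposon donor libraries; each variable transposon-end sequence sits in a fixed pDonor mini-transposon context (10-bp barcode and cargo not included). Left- or right-end libraries were co-transformed with pEffector (TniQ-Cascade, TnsABC, lacZ crRNA, T7, 0.1 mM IPTG) into E. coli BL21(DE3) and grown 18 h at 37 C. T-LR and T-RL junction amplicons were sequenced; output/input barcode fold change was normalised to the mean of four wild-type barcodes and log2-transformed. Two biological replicates; zero-count/undetected variants carry floor values (-10 / -15), censored here. Barcode uncoupling by PCR recombination adds noise.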

Data set [2] has the same test system. Kind of data set: relative integration efficiency (T-RL orientation) vs wild-type transposon end (log2 (normalized fold change)); transposon end mutated: left end; higher = more efficient transposition. A digest of the protocol:
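Pools of 1549 left-end or 1849 right-end barcoded transposon variants were cloned into a pUC57 mini-transposon donor and co-transformed into E. coli BL21(DE3) with a T7-driven effector plasmid carrying a CRISPR array, tniQ-cas8-cas7-cas6 and tnsA-tnsB-tnsC. Plating used 0.1 mM IPTG at 37°C for 18 h, and input plasmids and genomic integration junctions were PCR-amplified for Illumina sequencing, with two biological output replicates and four reference barcodes. Relative integration efficiency is the log-transformed fold change of output over input barcode abundance, normalised to the reference barcodes.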

Consider “AATGTTGTTGATGCAACCATAAAGTGATAATAATTATTTATAATCAGCAACTTAACCACAAAACAACCATATATTGATATCTCACAAAACAACCATAAGTTGATATTTTTGTGAATCGAGTATTTCAGCAAAACTACTGCAGTAAGAAAGTT”, for which the “relative integration efficiency (log2)” value in data set [1] is -6.51 ± 1.4; in data set [2], -7.71 ± 1.4.
In the same order, the values of “AATGTTGTTGATGCAACCATAAAGTGATAGGGCCGCCGGCGGGCGCCGACTACCAGGCCAACACCCCACCAACGCGCGGTCGCGAGACACCCCACCAACGCCTGGTCGCGGGGGTGTCCGATCTGATTTCAGCAAAACTACTGCAGTAAGAA” are -5.19 ± 2.5 and -7.44 ± 1.6.
“AATGTTGTTGATGCAACCATAAAGTGATATATAATTATTTATAATCAGCAACTTAACCACAAAACAACCATATATTGATATCTCACAAAACAACCATAAGTTGATATTTTTGTGAATCGAGTATTTCAGCAAAACTACTGCAGTAAGAAAGT”: the “relative integration efficiency (log2)” value in data set [1] was -4.68 ± 0.68; in data set [2], -7.3 ± 1.5.
With “AATGTTGTTGATGCAACCATAAAGTGATATGGCCGCCGGCGGGCGCCGACTACCAGGCCAACACCCCACCAACGCGCGGTCGCGAGACACCCCACCAACGCCTGGTCGCGGGGGTGTCCGATCTGATTTCAGCAAAACTACTGCAGTAAGAA”, the entries for the “relative integration efficiency (log2)” value in data set [1] and in data set [2] were -6.67 ± 3.5 and -7.18 ± 0.63, respectively.
Take “AATGTTGTTGATGCAACCATAAAGTGATATTGCCGCCGGCGGGCGCCGACTACCAGGCCAACACCCCACCAACGCGCGGTCGCGAGACACCCCACCAACGCCTGGTCGCGGGGGTGTCCGATCTGATTTCAGCAAAACTACTGCAGTAAGAA”: the “relative integration efficiency (log2)” value in data set [1] is -5.87 ± 0.86; in data set [2], -7.14 ± 1.3.
Turning to “AATGTTGTTGATGCAACCATAAAGTGATATTTAAAATGTGAGCGAGTAACAACCCTTAACCACAAAACAACCATATATTGATATCTCACAAAACAACCATAAGTTGATATTTTTGTGAATCGAGTATTTCAGCAAAACTACTGCAGTAAGAA”, the “relative integration efficiency (log2)” value in data set [1] is -0.988 ± 0.33; in data set [2] it was -2.19 ± 0.48.
For the sequence “AATGTTGTTGATGCAACCATAAAGTGATATTTAAAGTACAGCGCGACTGAACTCATCATTAAAACGACAACCATATATTGATATCTCACAAAACAACCATAAGTTGATATTTTTGTGAATCGAGTATTTCAGCAAAACTACTGCAGTAAGAA”, the “relative integration efficiency (log2)” value in data set [1] was -0.487 ± 1.5; in data set [2] it was -2.4 ± 1.2.
With “AATGTTGTTGATGCAACCATAAAGTGATATTTAAATTGTGAGCGGATAACAATTCTTAACCACAAAACAACCATATATTGATATCTCACAAAACAACCATAAGTTGATATTTTTGTGAATCGAGTATTTCAGCAAAACTACTGCAGTAAGAA”, the “relative integration efficiency (log2)” value in data set [1] was -3.23 ± 0.83; in data set [2], -3.08 ± 0.73.
As to “AATGTTGTTGATGCAACCATAAAGTGATATTTAACAACCATAAAGTGATATTTAACTTAACCACAAACAACCATATATTGATATCTCACAAAACAACCATAAGTTGATATTTTTGTGAATCGAGTATTTCAGCAAAACTACTGCAGTAAGAA”, the entries for the “relative integration efficiency (log2)” value in data set [1] and in data set [2] were 1.37 ± 1.1 and -2.56 ± 0.5, respectively.
For “AATGTTGTTGATGCAACCATAAAGTGATATTTAACAACCATATATTGATATCTCACAAAACAACCATAAGTTGATATTTTTAATTATTTATAATCAGCAACTTAACCACAAAATGTGAATCGAGTATTTCAGCAAAACTACTGCAGTAAGAA”, in that order: -0.212 ± 1.1 and -1.58 ± 0.69.
As for “AATGTTGTTGATGCAACCATAAAGTGATATTTAACAACCATATATTGATATCTCACAAAACAACCATAAGTTGATATTTTTGTGAATCGAGTATTTCAGCAAAACTACTGCAGTAAGAAAGTTACTTCGTGGTATGGGAGGATCAAGGAGCC”, the figures for the “relative integration efficiency (log2)” value in data set [1] and in data set [2] were -0.0605 ± 1 and -2.74 ± 1, respectively.
“AATGTTGTTGATGCAACCATAAAGTGATATTTAACAACCATATATTGATATCTCTAATTATTTATAATCAGCAACTTAACCACAAAAACAAAACAACCATAAGTTGATATTTTTGTGAATCGAGTATTTCAGCAAAACTACTGCAGTAAGAA”: the entries for the “relative integration efficiency (log2)” value in data set [1] and in data set [2] were -0.167 ± 0.77 and -2.13 ± 0.82, respectively.
In the case of “AATGTTGTTGATGCAACCATAAAGTGATATTTAACAAGACTAACATTATTAGTAACTGAGAACTATGCAACCATATATTGATATCTCACAAAACAACCATAAGTTGATATTTTTGTGAATCGAGTATTTCAGCAAAACTACTGCAGTAAGAA”, the “relative integration efficiency (log2)” value is -2.85 ± 0.45 in data set [1] and -2.4 ± 0.87 in data set [2].
Regarding “AATGTTGTTGATGCAACCATAAAGTGATATTTAACTCTCTTCTTTAGCAGTCTAGTCTATTGAAACTCAACCATATATTGATATCTCACAAAACAACCATAAGTTGATATTTTTGTGAATCGAGTATTTCAGCAAAACTACTGCAGTAAGAA”, the “relative integration efficiency (log2)” value in data set [1] is -5.31 ± 0.24; in data set [2], -3.73 ± 1.2.
For “AATGTTGTTGATGCAACCATAAAGTGATATTTAAGCCGGCGGGCGCCGACTACCAGGCCAACACCCCACCAACGCGCGGTCGCGAGACACCCCACCAACGCCTGGTCGCGGGGGTGTCCGATCTGATTTCAGCAAAACTACTGCAGTAAGAA”, in that order: -5.38 ± 1 and -6.95 ± 1.1.
In the same order, the values of “AATGTTGTTGATGCAACCATAAAGTGATATTTAAGCTATACTCTAGGTATCTAACTTGTCCCATTGCCAACCATATATTGATATCTCACAAAACAACCATAAGTTGATATTTTTGTGAATCGAGTATTTCAGCAAAACTACTGCAGTAAGAA” are -3.91 ± 1.4 and -4.82 ± 1.4.
With “AATGTTGTTGATGCAACCATAAAGTGATATTTAAGTACTGCGCGTCTGAAGTCATCTTTAAACCGAACAACCATATATTGATATCTCACAAAACAACCATAAGTTGATATTTTTGTGAATCGAGTATTTCAGCAAAACTACTGCAGTAAGAA”, the “relative integration efficiency (log2)” value in data set [1] was -3.06 ± 1.1; in data set [2], -3.55 ± 0.95.
For “AATGTTGTTGATGCAACCATAAAGTGATATTTAATAACAACCATAAAGTGATATTTAACTTAACCACCAACCATATATTGATATCTCACAAAACAACCATAAGTTGATATTTTTGTGAATCGAGTATTTCAGCAAAACTACTGCAGTAAGAA”, in that order: -3.39 ± 0.26 and -4.66 ± 1.1.
In the same order, the values of “AATGTTGTTGATGCAACCATAAAGTGATATTTAATAACAACCATATATTGATATCTCACAAAACAACCATAAGTTGATATTTTTGTGAATCGAGTATTTCAGCAAAACTACTGCAGTAAGAAAGTTACTTCGTGGTATGGGAGGATCAAGGA” are -3.02 ± 1.5 and -5.54 ± 1.1.
Take “AATGTTGTTGATGCAACCATAAAGTGATATTTAATAACAACCATATATTGATATCTCACAAAACAACCATAAGTTGATATTTTTTATTTATAATCAGCAACTTAACCACAAAATGTGAATCGAGTATTTCAGCAAAACTACTGCAGTAAGAA”: the “relative integration efficiency (log2)” value in data set [1] was -1.89 ± 1; in data set [2] it was -3.74 ± 0.68.
Regarding “AATGTTGTTGATGCAACCATAAAGTGATATTTAATAACAACCATATATTGATATCTCTTATTTATAATCAGCAACTTAACCACAAAAACAAAACAACCATAAGTTGATATTTTTGTGAATCGAGTATTTCAGCAAAACTACTGCAGTAAGAA”, the “relative integration efficiency (log2)” value in data set [1] was -2.07 ± 1.8; in data set [2], -3.58 ± 1.
As for “AATGTTGTTGATGCAACCATAAAGTGATATTTAATAACTTCGTATAAAGTATCCTATACGAAGTTATCAACCATATATTGATATCTCACAAAACAACCATAAGTTGATATTTTTGTGAATCGAGTATTTCAGCAAAACTACTGCAGTAAGAA”, the results for the “relative integration efficiency (log2)” value in data set [1] and in data set [2] were -2.99 ± 2.4 and -2.17 ± 0.99, respectively.
In the case of “AATGTTGTTGATGCAACCATAAAGTGATATTTAATAACTTCGTATAAGGTATACTATACGAAGTTATCAACCATATATTGATATCTCACAAAACAACCATAAGTTGATATTTTTGTGAATCGAGTATTTCAGCAAAACTACTGCAGTAAGAA”, the “relative integration efficiency (log2)” value in data set [1] was -3.52 ± 1.1; in data set [2], -3.34 ± 1.1.
Turning to “AATGTTGTTGATGCAACCATAAAGTGATATTTAATAACTTCGTATAATGTATACTATACGAAGTTATCAACCATATATTGATATCTCACAAAACAACCATAAGTTGATATTTTTGTGAATCGAGTATTTCAGCAAAACTACTGCAGTAAGAA”, the “relative integration efficiency (log2)” value is -2.57 ± 2.1 in data set [1] and -3.05 ± 1.2 in data set [2].
In the case of “AATGTTGTTGATGCAACCATAAAGTGATATTTAATAACTTCGTATAATGTATCGTATACGAACGGTACAACCATATATTGATATCTCACAAAACAACCATAAGTTGATATTTTTGTGAATCGAGTATTTCAGCAAAACTACTGCAGTAAGAA”, the “relative integration efficiency (log2)” value was -4.18 ± 0.64 in data set [1] and -3.32 ± 0.82 in data set [2].
Take “AATGTTGTTGATGCAACCATAAAGTGATATTTAATAACTTCGTATAATGTATGCTATACGAAGTTATCAACCATATATTGATATCTCACAAAACAACCATAAGTTGATATTTTTGTGAATCGAGTATTTCAGCAAAACTACTGCAGTAAGAA”: the “relative integration efficiency (log2)” value in data set [1] was -3.76 ± 2.9; in data set [2] it was -2.95 ± 1.1.
Consider “AATGTTGTTGATGCAACCATAAAGTGATATTTAATAACTTCGTATAGGATACTTTATACGAAGTTATCAACCATATATTGATATCTCACAAAACAACCATAAGTTGATATTTTTGTGAATCGAGTATTTCAGCAAAACTACTGCAGTAAGAA”, for which the “relative integration efficiency (log2)” value was -3.99 ± 1.5 in data set [1] and -3.72 ± 1.3 in data set [2].
